What is called EC50 is the midpoint of the concentration-response curve.

T1: cyCD19 ECD (cynomolgus, UniProt A0A2K5W8L9 20-292)
T1 construct: extracellular domain; also called cynomolgus CD19 extracellular domain
T1 sequence: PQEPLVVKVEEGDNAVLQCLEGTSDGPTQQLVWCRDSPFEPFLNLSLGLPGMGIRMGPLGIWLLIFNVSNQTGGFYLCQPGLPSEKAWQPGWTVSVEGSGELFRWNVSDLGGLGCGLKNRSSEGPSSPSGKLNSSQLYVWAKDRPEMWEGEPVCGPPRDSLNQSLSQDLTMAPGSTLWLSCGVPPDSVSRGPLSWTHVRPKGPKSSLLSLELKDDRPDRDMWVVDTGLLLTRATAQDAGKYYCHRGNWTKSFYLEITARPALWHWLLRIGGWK

B1: wild-type humanized anti-human CD19 antibody (var.0) (antibody, V domains shown)
VH: QVQLVQSGAEVKKPGASVKVSCKASGYTFTDYIMHWVRQAPGQGLEWMGYINPYNDGSKYTEKFNGKATMTSDTSISTAYMELSRLRSDDTAVYYCARGTYYYGSALFDYWGQGTTVTVSS
VL: DIVMTQTPLSLSVTPGQPASISCKSSQSLENSNGNTYLNWYLQKPGQSPQLLIYRVSKRFSGVPDRFSGSGSGTDFTLKISRVEAEDVGVYYCLQLTHVPYTFGQGTKLEIK
B2: humanized anti-human CD19 antibody var.9 (S27eP/N28S) (antibody, V domains shown)
VH: QVQLVQSGAEVKKPGASVKVSCKASGYTFTDYIMHWVRQAPGQGLEWMGYINPYNDGSKYTEKFQGRVTMTSDTSISTAYMELSRLRSDDTAVYYCARGTYYYGSALFDYWGQGTTVTVSS
VL: DIVMTQTPLSLSVTPGQPASISCKSSQSLENPSGNTYLNWYLQKPGQSPQLLIYRVSKRFSGVPDRFSGSGSGTDFTLKISRVEAEDVGVYYCLQLTHVPYTFGQGTKLEIK
B3: humanized anti-human CD19 antibody var.5 (S27eP), named clone 8B8-018 (antibody, V domains shown)
VH: QVQLVQSGAEVKKPGASVKVSCKASGYTFTDYIMHWVRQAPGQGLEWMGYINPYNDGSKYTEKFQGRVTMTSDTSISTAYMELSRLRSDDTAVYYCARGTYYYGSALFDYWGQGTTVTVSS
VL: DIVMTQTPLSLSVTPGQPASISCKSSQSLENPNGNTYLNWYLQKPGQSPQLLIYRVSKRFSGVPDRFSGSGSGTDFTLKISRVEAEDVGVYYCLQLTHVPYTFGQGTKLEIK
notes: also called variant 5

The test has as its target T1, cyCD19 ECD. Kind of test: binding to cyCD19 ECD, method not stated.
Molecule B1 showed an EC50 of 0.313 µg/mL.
As for B2, the EC50 was 0.435 µg/mL.
Take B3: the EC50 was 0.255 µg/mL.

The values are drawn from patent publication US20220259327A1 (published 2022).
